Measured values taken from patent publication US20240101716A1 (LA NOVA MEDICINES DEVELOPMENT, published 2024).

B1: PD-L1/SIRPa-HC1 (bispecific antibody, human IgG4 S228P, kappa)
heavy: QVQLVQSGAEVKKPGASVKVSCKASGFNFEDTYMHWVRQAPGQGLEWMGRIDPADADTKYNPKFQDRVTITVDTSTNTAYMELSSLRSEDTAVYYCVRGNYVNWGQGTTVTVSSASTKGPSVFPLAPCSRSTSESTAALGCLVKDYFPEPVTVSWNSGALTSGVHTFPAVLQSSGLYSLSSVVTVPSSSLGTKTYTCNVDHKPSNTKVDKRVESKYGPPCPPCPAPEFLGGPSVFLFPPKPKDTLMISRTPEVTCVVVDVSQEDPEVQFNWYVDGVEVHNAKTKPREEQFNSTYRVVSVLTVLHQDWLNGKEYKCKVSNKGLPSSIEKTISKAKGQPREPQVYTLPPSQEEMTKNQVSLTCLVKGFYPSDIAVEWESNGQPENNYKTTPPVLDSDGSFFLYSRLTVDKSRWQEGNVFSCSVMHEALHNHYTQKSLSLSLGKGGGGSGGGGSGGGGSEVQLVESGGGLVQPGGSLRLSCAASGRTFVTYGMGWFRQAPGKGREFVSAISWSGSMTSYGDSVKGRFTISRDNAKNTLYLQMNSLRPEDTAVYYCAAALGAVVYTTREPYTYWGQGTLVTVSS
light: EIVLTQSPGTLSLSPGERATLSCRASSSVSSSYLYWYQQKPGQAPRLLIYSTSNLASGIPDRFSGSGSGTDYTLTISRLEPEDAAVYFCHQWYSYPRTFGGGTKVEIKRTVAAPSVFIFPPSDEQLKSGTASVVCLLNNFYPREAKVQWKVDNALQSGNSQESVTEQDSKDSTYSLSSTLTLSKADYEKHKVYACEVTHQGLSSPVTKSFNRGEC
notes: Format I: AS11948SVH12 sdAb at the C-terminus of IgG4 Fc of 02-hz52 (248G3F6); also called PD-L1/SIRPα-HC1
B2: PD-L1/SIRPa-LN2 (bispecific antibody, human IgG4 S228P, kappa)
heavy: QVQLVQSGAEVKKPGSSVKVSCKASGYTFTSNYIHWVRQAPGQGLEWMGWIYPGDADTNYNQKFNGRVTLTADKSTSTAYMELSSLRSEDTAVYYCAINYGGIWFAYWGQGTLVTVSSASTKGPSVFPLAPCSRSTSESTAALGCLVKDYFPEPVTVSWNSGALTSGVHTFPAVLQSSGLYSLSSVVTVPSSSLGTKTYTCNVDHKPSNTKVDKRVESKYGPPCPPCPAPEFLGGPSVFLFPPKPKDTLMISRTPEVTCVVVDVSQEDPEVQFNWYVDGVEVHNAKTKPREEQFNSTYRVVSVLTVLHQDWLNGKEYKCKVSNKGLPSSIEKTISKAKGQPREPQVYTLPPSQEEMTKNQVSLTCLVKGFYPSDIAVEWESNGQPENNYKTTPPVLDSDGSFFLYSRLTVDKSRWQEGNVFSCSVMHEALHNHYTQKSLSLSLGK
light: EVQLVESGGGLVQPGGSLRLSCAASGRTFVTYGMGWFRQAPGKGREFVSAISWSGSMTSYGDSVKGRFTISRDNAKNTLYLQMNSLRPEDTAVYYCAAALGAVVYTTREPYTYWGQGTLVTVSSGGGGSGGGGSGGGGSDIQMTQSPSSLSASVGDRVTITCQASQDIGNKLIWYQQKPGKAPKLLIYYVTNLPGGVPSRFSGSGSGTDFTLTISSLQPEDFATYYCLQYKQNPLTFGQGTKLEIKRTVAAPSVFIFPPSDEQLKSGTASVVCLLNNFYPREAKVQWKVDNALQSGNSQESVTEQDSKDSTYSLSSTLTLSKADYEKHKVYACEVTHQGLSSPVTKSFNRGEC
notes: Format IV: sdAb at the N-terminus of the light chain (300A6A6); also called PD-L1/SIRPα-LN2
B3: PD-L1/SIRPa-HN2 (bispecific antibody, human IgG4 S228P, kappa)
heavy: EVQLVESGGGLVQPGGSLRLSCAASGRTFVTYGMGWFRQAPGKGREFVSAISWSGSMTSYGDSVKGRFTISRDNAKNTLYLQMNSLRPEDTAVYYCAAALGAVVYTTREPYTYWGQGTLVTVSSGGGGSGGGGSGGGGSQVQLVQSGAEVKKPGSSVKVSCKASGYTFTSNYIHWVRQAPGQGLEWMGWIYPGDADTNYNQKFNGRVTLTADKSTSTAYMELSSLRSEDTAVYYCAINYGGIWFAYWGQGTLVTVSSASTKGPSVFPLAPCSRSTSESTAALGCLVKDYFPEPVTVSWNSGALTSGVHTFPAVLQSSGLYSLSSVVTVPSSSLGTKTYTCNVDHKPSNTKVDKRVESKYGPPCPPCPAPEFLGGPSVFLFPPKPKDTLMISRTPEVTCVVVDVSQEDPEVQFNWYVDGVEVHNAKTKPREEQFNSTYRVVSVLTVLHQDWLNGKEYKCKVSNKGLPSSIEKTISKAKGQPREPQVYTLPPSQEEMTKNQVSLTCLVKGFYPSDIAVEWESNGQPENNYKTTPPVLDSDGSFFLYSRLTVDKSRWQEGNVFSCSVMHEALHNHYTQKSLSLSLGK
light: DIQMTQSPSSLSASVGDRVTITCQASQDIGNKLIWYQQKPGKAPKLLIYYVTNLPGGVPSRFSGSGSGTDFTLTISSLQPEDFATYYCLQYKQNPLTFGQGTKLEIKRTVAAPSVFIFPPSDEQLKSGTASVVCLLNNFYPREAKVQWKVDNALQSGNSQESVTEQDSKDSTYSLSSTLTLSKADYEKHKVYACEVTHQGLSSPVTKSFNRGEC
notes: Format II: sdAb at the N-terminus of the heavy chain (300A6A6); also called PD-L1/SIRPα-HN2
B4: PD-L1/SIRPa-LC2 (bispecific antibody, human IgG4 S228P, kappa)
heavy: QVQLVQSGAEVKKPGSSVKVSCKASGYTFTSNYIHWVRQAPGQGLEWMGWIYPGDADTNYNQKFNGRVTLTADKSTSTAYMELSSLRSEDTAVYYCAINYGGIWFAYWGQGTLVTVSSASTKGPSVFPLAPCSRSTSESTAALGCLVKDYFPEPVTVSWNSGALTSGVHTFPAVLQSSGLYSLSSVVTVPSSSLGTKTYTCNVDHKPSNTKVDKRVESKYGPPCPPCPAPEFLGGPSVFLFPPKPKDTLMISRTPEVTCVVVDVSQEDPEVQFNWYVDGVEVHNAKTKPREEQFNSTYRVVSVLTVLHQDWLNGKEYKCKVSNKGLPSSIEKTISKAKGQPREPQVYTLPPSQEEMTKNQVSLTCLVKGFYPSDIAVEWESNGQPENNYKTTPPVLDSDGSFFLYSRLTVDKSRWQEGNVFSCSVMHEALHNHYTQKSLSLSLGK
light: DIQMTQSPSSLSASVGDRVTITCQASQDIGNKLIWYQQKPGKAPKLLIYYVTNLPGGVPSRFSGSGSGTDFTLTISSLQPEDFATYYCLQYKQNPLTFGQGTKLEIKRTVAAPSVFIFPPSDEQLKSGTASVVCLLNNFYPREAKVQWKVDNALQSGNSQESVTEQDSKDSTYSLSSTLTLSKADYEKHKVYACEVTHQGLSSPVTKSFNRGECGGGGSGGGGSGGGGSEVQLVESGGGLVQPGGSLRLSCAASGRTFVTYGMGWFRQAPGKGREFVSAISWSGSMTSYGDSVKGRFTISRDNAKNTLYLQMNSLRPEDTAVYYCAAALGAVVYTTREPYTYWGQGTLVTVSS
notes: Format III: sdAb at the C-terminus of the light chain (300A6A6); also called PD-L1/SIRPα-LC2
B5: 248G3F6 (antibody, V domains shown)
VH: EVQLQQSGAELVKPGASVKLSCTASGFNFEDTYMHWVKQRPDQGLEWIGRIDPADGDTKYNPKFQDKATITVDTSSNTAYLQLSSLTSEDTAVYYCVRGNYVNWGQGTTLTVSS
VL: QIVLIQSPAIMSASPGERVTLTCRASSSVSSSYLYWYQQKPGSSPKLWIYSTSNLASGVPARFSGSGSGTSYSLTISSMEAEDAASYFCHQWYSYPRTFGGGTKLEIK
notes: murine hybridoma antibody; also called mouse anti-SIRPα mAb 248G3F6
B6: 300A6A6 (antibody, V domains shown)
VH: QVQLQQSGTELVKPGSSVKISCKASGYTFTSNYIHWIRQQPGNGLEWIGWIYPGDGDTNYNQKFNGKATLTADKSSSTAYMQLSSLTSEDYAVYFCAINYGGIWFAYWGQGTLVTVSS
VL: DIQMTQSPSSMSASLGDRVTITCQASQDIGNKLIWFQQKPGKSPRLMIHYVTNLPGGVPLRFSGSRSGSDYSLTISSLESEDMADYYCLQYKQNPLTFGSGTKLEIK
notes: murine hybridoma antibody; also called mouse anti-SIRPα mAb 300A6A6

Each binder was assayed against T1, PD-L1 expressed on cells (UniProt Q9NZQ7 19-290, limits assumed) (assay: FACS binding test on PD-L1 cell line, Geom.Mean; unit from the axis log(nm)).
T1 construct: whole, on cells
T1 sequence (Q9NZQ7 19-290 limits assumed): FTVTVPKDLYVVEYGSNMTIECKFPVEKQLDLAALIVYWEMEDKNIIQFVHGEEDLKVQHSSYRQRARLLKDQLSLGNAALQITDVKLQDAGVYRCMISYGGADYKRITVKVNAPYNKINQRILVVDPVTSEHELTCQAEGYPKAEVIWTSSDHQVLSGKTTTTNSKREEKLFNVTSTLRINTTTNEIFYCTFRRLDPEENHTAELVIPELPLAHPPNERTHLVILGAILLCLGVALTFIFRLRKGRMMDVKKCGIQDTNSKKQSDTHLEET

EC50 [nM]	Binder
0.321	B1
0.205	B2
0.269	B3
0.912	B4

What follows are binders tested against T2, recombinant human SIRPα variant 2 protein (human, UniProt P78324 31-370, limits assumed) (assay: ELISA on coated recombinant human SIRPα v2, OD450).
T2 construct: polymorphic variant 2; also called SIRPα v2; hSIRPαV2
T2 sequence (P78324 other isoform, or with tags, fused parts or gaps mutant limits assumed): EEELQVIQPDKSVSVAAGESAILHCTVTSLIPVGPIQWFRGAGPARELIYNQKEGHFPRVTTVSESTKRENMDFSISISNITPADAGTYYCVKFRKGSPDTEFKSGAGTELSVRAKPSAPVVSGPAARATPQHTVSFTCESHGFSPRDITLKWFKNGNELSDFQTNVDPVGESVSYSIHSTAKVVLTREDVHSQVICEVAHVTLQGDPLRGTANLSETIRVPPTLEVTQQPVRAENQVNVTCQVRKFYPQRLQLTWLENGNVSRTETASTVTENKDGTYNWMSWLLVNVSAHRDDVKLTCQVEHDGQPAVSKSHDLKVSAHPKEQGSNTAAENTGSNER
Protocol: After coating of the antigen, the wells were blocked with PBS/0.05% Tween (PBST) with 1% BSA for 1 h at RT.
Between all incubation steps, the wells of the plate were washed with PBST three times. […]

EC50 [µg/mL]	Binder
0.0136	B5
0.0105	B6

These binders were tested against PD-L1 (blocking assay of Example 11) (UniProt Q9NZQ7 19-239, limits assumed) (assay: cell-based or functional assay).
PD-L1 (blocking assay of Example 11), sequence (Q9NZQ7 19-239 limits assumed): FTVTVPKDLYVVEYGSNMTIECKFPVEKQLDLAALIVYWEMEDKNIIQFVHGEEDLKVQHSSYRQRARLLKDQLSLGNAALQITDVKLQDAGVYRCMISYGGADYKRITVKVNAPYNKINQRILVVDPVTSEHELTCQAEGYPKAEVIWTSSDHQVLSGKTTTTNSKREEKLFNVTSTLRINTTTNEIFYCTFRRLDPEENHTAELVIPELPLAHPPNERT

EC50, luminescence (RLU) in the PD-1/PD-L1 Blockade Assay [nM]	Binder
0.9	B1
0.873	B2
0.908	B3
1.55	B4
